Results as given in paper PMC10218236.
Where “and” joins values, the source holds several entries; their conditions need not be identical. Equal values may be shown once.

Molecular target: L1CAM on L1CAM-high cells (LoVo) (Homo sapiens?) (UniProt P32004)
Assay: flow cytometry
Conditions: PBS, 4.5 g/L glucose, 5 mM MgCl2, 1 mg/mL BSA, 0.1 mg/mL herring sperm DNA, 30 min at 4 °C (or 25/37 °C), pH not stated

L1CAM on L1CAM-high cells (LoVo) (Homo sapiens?), sequence (P32004 20-1257): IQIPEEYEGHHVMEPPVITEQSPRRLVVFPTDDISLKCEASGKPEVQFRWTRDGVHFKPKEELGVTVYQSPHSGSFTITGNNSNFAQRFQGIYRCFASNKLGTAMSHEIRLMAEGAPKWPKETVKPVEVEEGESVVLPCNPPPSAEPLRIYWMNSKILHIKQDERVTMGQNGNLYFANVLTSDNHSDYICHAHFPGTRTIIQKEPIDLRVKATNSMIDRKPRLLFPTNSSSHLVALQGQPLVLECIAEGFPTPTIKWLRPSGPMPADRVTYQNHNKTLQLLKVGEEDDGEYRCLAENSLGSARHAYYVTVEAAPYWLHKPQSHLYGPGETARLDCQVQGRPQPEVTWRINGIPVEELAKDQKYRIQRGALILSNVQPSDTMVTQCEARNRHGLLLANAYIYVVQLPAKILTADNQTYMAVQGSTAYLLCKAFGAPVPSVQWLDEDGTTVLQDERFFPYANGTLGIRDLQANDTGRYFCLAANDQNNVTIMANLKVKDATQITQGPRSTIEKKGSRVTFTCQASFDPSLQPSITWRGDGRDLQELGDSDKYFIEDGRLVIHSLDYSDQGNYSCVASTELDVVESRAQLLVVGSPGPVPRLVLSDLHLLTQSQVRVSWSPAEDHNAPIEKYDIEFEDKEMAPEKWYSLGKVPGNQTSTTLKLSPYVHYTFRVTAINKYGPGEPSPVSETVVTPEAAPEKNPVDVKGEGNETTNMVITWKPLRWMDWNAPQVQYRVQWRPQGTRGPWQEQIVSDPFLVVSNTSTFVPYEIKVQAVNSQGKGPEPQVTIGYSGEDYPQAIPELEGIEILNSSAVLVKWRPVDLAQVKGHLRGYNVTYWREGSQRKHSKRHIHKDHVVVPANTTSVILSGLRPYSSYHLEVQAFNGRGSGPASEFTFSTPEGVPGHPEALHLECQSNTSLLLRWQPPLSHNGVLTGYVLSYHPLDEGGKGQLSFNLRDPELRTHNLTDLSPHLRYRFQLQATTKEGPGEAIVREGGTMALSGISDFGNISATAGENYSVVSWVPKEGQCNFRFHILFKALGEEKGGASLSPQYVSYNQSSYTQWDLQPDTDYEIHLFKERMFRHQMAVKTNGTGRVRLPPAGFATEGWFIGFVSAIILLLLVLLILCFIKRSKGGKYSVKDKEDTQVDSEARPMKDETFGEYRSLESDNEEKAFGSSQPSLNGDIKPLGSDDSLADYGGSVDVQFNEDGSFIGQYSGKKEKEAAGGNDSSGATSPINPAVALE

| Sequence | Kd | Kd (cited from earlier work) |
| --- | --- | --- |
| AGCGCAGAAGGGGGTAGCTCGGTCGTGTTTTTGGGTTGTTTGGTGGGTCTTCTGCGCT [yly21-9-T] | 107 nM | – |
| AGCGCAGATAGGGGGTAGCTCGGTCGTGTTTTTGGGTTGTTTGGTGGGTCTTCTGCGCT [yly21] | 1.3 nM and 0.9 nM and 5.1 nM | – |
| AGGATAGGGGGTAGCTCGGTCGTGTTTTTGGGTTGTTTGGTGGGTCTT [yly13] | – | 369 nM |
| AGGATAGGGGGTAGCTCGGTCGTGTTTTTGGGTTGTTTGGTGGGTCTTCTG [yly12] | 21.6 nM and 111 nM | 3.5 nM |
| ATAGGGGGTAGCTCGGTCGTGTTTTTGGGTTGTTTGGTGGGTCTTCTG [yly14] | – | 92 nM |
| CAGAAGGGGGTAGCTCGGTCGTGTTTTTGGGTTGTTTGGTGGGTCTTCTG [yly20-5-T] | 112 nM | – |
| CAGATAGAGGGTAGCTCGGTCGTGTTTTTGGGTTGTTTGGTGGGTCTTCTG [yly20-G8A] | 18.9 nM | – |
| CAGATAGGGGGTAGCCCGGTCGTGTTTTCGGGTTGTTTGGTGGGTCTTCTG [yly20-T1629C] | 155 nM | – |
| CAGATAGGGGGTAGCCCGGTCGTGTTTTTGGGTTGTTTGGTGGGTCTTCTG [yly20-T16C] | 44.2 nM | – |
| CAGATAGGGGGTAGCTAGGTCGTGTTTTTGGGTTGTTTGGTGGGTCTTCTG [yly20-C17A] | 3.4 nM | – |
| CAGATAGGGGGTAGCTCGGTCATGTTTTTGGGTTGTTTGGTGGGTCTTCTG [yly20-G22A] | 1.3 nM | – |
| CAGATAGGGGGTAGCTCGGTCGTGATTTTGGGTTGTTTGGTGGGTCTTCTG [yly20-T25A] | 1.7 nM | – |
| CAGATAGGGGGTAGCTCGGTCGTGTTTCCGGGTTGTTTGGTGGGTCTTCTG [yly20-T2829C] | 55.9 nM | – |
| CAGATAGGGGGTAGCTCGGTCGTGTTTCTGGGTTGTTTGGTGGGTCTTCTG [yly20-T28C] | 5.3 nM | – |
| CAGATAGGGGGTAGCTCGGTCGTGTTTTCGGGTTGTTTGGTGGGTCTTCTG [yly20-T29C] | 4.2 nM | – |
| CAGATAGGGGGTAGCTCGGTCGTGTTTTTGGGCTGTTTGGTGGGTCTTCTG [yly20-T33C] | 9.5 nM | – |
| CAGATAGGGGGTAGCTCGGTCGTGTTTTTGGGTTATTTGGTGGGTCTTCTG [yly20-G35A] | 53.1 nM | – |
| CAGATAGGGGGTAGCTCGGTCGTGTTTTTGGGTTGTTTGGTGGGCCTTCTG [yly20-T45C] | 66.9 nM | – |
| CAGATAGGGGGTAGCTCGGTCGTGTTTTTGGGTTGTTTGGTGGGTATTCTG [yly20-C46A] | 46.4 nM | – |
| CAGATAGGGGGTAGCTCGGTCGTGTTTTTGGGTTGTTTGGTGGGTCTTCTG [yly20] | 2.3 nM and 1.9 nM and 7.6 nM | – |
| CGGATAGGGGGTAGCTCGGTCGTGTTTTTGGGTTGTTTGGTGGGTCTTCTG [yly34] | 3.4 nM and 7.2 nM and 18.7 nM | – |
| GGGATAGGGGGTAGCTCGGTCGTGTTTTTGGGTTGTTTGGTGGGTCTTCTG [yly33] | 6.2 nM and 12 nM and 41.4 nM | – |
| TAGGGGGTAGCTCGGTCGTGTTTTTGGGTTGTTTGGTGGGTCTTCTG [yly16] | – | 330 nM |
| TTTGGGTTGTTTGGTGGGTCTTCTGCAGATAGGGGGTAGCTCGGTCGTGTT [yly20re] | 4.2 nM and 4.4 nM and 13 nM | – |
